Measurements reported in publication PMC3605307 (2013).

Legend:
Assay in all cases: SPR
[1] = target: Human TRAIL-R2-Fc V167A (human, UniProt O14763 58-184, V167A)
[2] = target: Human TRAIL-R2-Fc F112A (human, UniProt O14763 58-184, F112A)
[3] = target: Human TRAIL-R2-Fc triple mutation V167A-W173A-V179A (human, UniProt O14763 58-184, V167A | W173A | V179A)
[4] = target: Human TRAIL-R2-Fc D109A together with E78A (human, UniProt O14763 58-184, E78A | D109A)
Sequence of Human TRAIL-R2-Fc D109A together with E78A (O14763 58-184 E78A/D109A): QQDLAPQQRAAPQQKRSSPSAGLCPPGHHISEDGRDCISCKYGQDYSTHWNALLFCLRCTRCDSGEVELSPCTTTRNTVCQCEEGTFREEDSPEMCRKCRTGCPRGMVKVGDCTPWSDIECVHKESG

Sequence of Human TRAIL-R2-Fc triple mutation V167A-W173A-V179A (O14763 58-184 V167A/W173A/V179A): as the sequence (O14763 58-184 E78A/D109A) above, with A21E, A52D, V110A, W116A, V122A counted along it
Sequence of Human TRAIL-R2-Fc F112A (O14763 58-184 F112A): as the sequence (O14763 58-184 E78A/D109A) above, with A21E, A52D, F55A counted along it
Sequence of Human TRAIL-R2-Fc V167A (O14763 58-184 V167A): as the sequence (O14763 58-184 E78A/D109A) above, with A21E, A52D, V110A counted along it

Binder | Kd [1] | Kd [2] | Kd [3] | Kd [4]
TRAIL (TNF-related apoptosis inducing ligand) ectodomain (ligand) TNELKQMQDKYSKSGIACFLKEDDSYWDPNDEESMNSPCWQVKWQLRQLVRKMILRTSEETISTVQEKQQNISPLVRERGPQRVAAHITGTRGRSNTLSSPNSKNEKALGRKINSWESSRSGHSFLSNLHLRNGELVIHEKGFYYIYSQTYFRFQEEIKENTKNDKQMVQYIYKYTSYPDPILLMKSARNSCWSKDAEYGLYSIYQGGIFELKENDRIFVSVTNEHLIDMDHEASFFGAFLVG | 4 nM | 4 nM | 4 nM | 4 nM
Recombinant UL141 ectodomain (soluble, released from the Fc fusion) (domain or fragment) SFPFATADIAEKMWAENYETTSPAPVLVAEGEQVTIPCTVMTHSWPMVSIRARFCRSHDGSDELILDAVKGHRLMNGLQYRLPYATWNFSQLHLGQIFSLTFNVSTDTAGMYECVLRNYSHGLIMQRFVILTQLETLSRPDEPCCTPALGRYSLGDQIWSPTPWRLRNHDCGMYRGFQRNYFYIGRADAEDCWKPACPDEEPDRCWTVIQRYRLPGDCYRSQPHPPKFLPVTPAPPADIDTGMSPWATRG | – | – | – | 60 nM
